According to PMC5383425, “Differential CLE peptide perception by plant receptors implicated from structural and functional analyses of TDIF-TDR interactions” (PLoS ONE, 2017):
Square brackets hold non-standard residues; d marks the D form. Ends that are not written are not given here. Hyp = O=C(O)[C@@H]1C[C@@H](O)CN1

Tests used:
[1] = target: T1, extracellular domain of A. thaliana TDR (residues 30-642) (Arabidopsis thaliana, UniProt Q9FII5 30-642, N-glycosylated at N111, N356, N378, N471 and N525 (one GlcNAc visible on each in the structures)); test: ITC
T1 chain: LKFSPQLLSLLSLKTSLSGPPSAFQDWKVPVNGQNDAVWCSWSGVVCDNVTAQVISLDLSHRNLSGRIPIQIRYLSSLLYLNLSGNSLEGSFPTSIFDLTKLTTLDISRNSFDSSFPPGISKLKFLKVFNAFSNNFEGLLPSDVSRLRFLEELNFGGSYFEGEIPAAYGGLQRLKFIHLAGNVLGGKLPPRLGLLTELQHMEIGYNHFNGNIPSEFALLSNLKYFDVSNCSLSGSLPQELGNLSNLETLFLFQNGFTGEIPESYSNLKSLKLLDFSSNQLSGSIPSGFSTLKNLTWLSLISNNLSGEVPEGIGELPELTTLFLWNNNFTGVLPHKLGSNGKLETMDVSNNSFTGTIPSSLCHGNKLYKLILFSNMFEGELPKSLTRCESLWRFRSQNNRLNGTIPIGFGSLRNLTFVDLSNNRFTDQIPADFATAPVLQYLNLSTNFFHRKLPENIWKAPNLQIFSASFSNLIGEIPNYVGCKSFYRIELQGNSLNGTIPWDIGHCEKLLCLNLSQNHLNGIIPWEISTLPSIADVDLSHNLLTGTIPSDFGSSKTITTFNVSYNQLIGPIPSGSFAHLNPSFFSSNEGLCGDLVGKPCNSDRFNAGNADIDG

[2] = target: T2, ecdTDR Y234 alanine mutant (Arabidopsis thaliana, UniProt Q9FII5 30-642, alanine substitution of Y234); test: ITC; 0.5–1 mM peptide titrated into 10–40 μM ecdTDR; 25°C; 10 mM sodium citrate, 100 mM NaCl, pH 5.5; fitted to one set of binding sites; MicroCal Auto-iTC200; conditions: both partners purified
T2 construct: TDR/PXY of A. thaliana, extracellular domain, residues 30-642; The text says only 'mutational analyses' of Y234; source: High Five insect cells (baculovirus), secreted, purified as the wild type (Ni-NTA, size-exclusion chromatography)
T2 sequence (looked up): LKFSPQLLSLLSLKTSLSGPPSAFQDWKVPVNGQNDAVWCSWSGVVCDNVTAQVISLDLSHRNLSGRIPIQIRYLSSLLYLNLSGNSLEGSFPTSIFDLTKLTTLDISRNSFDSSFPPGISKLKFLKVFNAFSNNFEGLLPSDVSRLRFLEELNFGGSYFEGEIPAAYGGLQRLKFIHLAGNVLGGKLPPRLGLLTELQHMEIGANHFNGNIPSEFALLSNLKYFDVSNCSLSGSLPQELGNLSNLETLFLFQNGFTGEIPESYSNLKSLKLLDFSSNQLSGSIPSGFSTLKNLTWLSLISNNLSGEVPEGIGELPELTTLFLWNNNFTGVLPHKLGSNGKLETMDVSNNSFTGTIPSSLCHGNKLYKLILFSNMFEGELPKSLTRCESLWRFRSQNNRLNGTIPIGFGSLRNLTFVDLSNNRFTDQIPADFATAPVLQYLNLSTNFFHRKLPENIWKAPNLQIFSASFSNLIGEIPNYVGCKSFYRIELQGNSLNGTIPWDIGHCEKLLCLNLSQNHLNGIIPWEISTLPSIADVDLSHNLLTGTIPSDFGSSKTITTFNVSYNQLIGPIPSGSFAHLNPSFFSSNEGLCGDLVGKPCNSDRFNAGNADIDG

[3] = target: T3, ecdTDR F279/F281 double alanine mutant (Arabidopsis thaliana, UniProt Q9FII5 30-642, F279 to alanine | F281 to alanine); test: as above; conditions: both partners purified
T3 construct: TDR/PXY of A. thaliana, extracellular domain, residues 30-642; also called F279A/F281A; source: High Five insect cells (baculovirus), secreted, purified as the wild type (Ni-NTA, size-exclusion chromatography)
T3 sequence (looked up): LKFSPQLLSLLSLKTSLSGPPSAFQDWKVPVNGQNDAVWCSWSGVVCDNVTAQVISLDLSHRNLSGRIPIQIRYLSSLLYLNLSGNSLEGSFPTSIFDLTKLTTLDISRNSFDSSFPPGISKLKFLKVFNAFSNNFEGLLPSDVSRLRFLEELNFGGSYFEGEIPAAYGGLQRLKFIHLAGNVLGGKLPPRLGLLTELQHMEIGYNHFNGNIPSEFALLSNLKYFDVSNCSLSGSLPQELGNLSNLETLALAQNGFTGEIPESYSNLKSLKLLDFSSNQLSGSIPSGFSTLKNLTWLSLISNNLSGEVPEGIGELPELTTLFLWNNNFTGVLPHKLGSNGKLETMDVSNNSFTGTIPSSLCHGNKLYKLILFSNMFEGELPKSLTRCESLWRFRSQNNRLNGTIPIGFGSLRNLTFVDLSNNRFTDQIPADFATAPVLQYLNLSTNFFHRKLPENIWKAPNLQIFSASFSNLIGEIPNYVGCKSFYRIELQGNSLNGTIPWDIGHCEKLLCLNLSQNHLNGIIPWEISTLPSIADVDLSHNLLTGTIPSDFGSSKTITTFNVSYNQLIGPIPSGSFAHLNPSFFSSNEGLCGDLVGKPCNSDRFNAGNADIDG

B1: Tracheary Element Differentiation Inhibitory Factor (TDIF) peptide (peptide)
peptide: HEV[Hyp]SG[Hyp]NPISN
notes: TDIF, the 12-residue CLE peptide processed from CLE41 and CLE44 of A. thaliana; printed as HEV(Hyp)SG(Hyp)NPISN; numbers count on: the 12-residue peptide; CLE44 encodes the same peptide; also called wild type TDIF; wtTDIF; source: synthetic peptide (peptide 2.0)
Kd [1]: 103 nM | binding result [2]: binds | fold decrease in binding against wild-type ecdTDR [3]: 8.6 fold
